This assay concerns the target human mu opioid receptor, N-terminally his-tagged (human) (UniProt P35372). In words: SPR; Biacore-X, 25°C; OPRM captured on a Ni-NTA sensor chip (about 4000 RU), second cell as reference; running Buffer B (5 mM NaHPO4, 10% glycerol, 0.07% Fos-12, pH 7.5); EM-1 injected at 10, 30, 50, 60, 80, 100 nM, 5 µl/min, no regeneration; 1:1 interaction model.

Among the data in PMC3578875 are Kd values, retold here.

Chain of UniProt P35372 (P35372 whole entry): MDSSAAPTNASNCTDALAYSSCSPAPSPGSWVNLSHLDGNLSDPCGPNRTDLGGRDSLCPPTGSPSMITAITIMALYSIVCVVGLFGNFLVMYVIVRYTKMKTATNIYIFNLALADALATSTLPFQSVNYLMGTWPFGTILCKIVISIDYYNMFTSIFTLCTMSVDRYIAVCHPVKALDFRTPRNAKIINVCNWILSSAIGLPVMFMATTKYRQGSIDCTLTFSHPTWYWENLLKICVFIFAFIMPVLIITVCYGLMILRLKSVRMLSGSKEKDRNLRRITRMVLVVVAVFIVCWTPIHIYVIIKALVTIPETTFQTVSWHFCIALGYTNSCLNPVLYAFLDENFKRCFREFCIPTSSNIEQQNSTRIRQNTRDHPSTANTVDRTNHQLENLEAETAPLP

As to endomorphin-1 (peptide), the Kd (usually the equilibrium constant for the complex coming apart) was found to be 60.9 nM.
